Each binder was assayed against SG7 (assay: flow cytometry on yeast-displayed VISTA). Conditions: chain shown with the change; 4 nM SG7; parent: est. 100; read off a plot.
SG7, sequence (chain, as listed by the source, chain 1 of 2): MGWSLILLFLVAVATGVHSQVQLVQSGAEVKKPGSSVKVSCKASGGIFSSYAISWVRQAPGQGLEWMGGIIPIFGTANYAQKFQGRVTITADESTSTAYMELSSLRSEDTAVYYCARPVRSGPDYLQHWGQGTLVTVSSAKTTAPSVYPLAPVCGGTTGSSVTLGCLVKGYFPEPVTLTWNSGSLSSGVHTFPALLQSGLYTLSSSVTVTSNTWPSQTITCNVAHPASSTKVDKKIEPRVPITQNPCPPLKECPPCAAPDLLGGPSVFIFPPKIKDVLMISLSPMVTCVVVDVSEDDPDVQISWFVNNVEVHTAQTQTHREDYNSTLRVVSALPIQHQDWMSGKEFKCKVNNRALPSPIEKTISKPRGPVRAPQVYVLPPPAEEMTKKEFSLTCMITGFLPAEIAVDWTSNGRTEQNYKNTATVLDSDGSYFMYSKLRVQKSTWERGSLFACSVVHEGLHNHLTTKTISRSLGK
SG7, sequence (chain, as listed by the source, chain 2 of 2): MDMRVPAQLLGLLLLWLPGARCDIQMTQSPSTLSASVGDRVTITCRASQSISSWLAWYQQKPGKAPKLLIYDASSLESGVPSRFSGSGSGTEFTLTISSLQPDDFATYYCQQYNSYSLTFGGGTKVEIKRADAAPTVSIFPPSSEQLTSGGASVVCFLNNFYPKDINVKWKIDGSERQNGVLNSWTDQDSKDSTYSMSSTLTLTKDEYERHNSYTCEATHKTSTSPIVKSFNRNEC

Binder	percent of parent
yeast-displayed mVISTA E124A (protein) FKVTTPYSLYVCPEGQNATLTCRILGPVSKGHDVTIYKTWYLSSRGEVQMCKEHRPIRNFTLQHLQHHGSHLKANASHDQPQKHGLELASDHHGNFSITLRNVTPRDSGLYCCLVIELKNHHPAQRFYGSMELQVQAGKGSGSTCMASNEQDSDSITAA	9 % WT
yeast-displayed mVISTA K38A (protein) FKVTTPYSLYVCPEGQNATLTCRILGPVSKGHDVTIYATWYLSSRGEVQMCKEHRPIRNFTLQHLQHHGSHLKANASHDQPQKHGLELASDHHGNFSITLRNVTPRDSGLYCCLVIELKNHHPEQRFYGSMELQVQAGKGSGSTCMASNEQDSDSITAA	63 % WT
yeast-displayed mVISTA I36A (protein) FKVTTPYSLYVCPEGQNATLTCRILGPVSKGHDVTAYKTWYLSSRGEVQMCKEHRPIRNFTLQHLQHHGSHLKANASHDQPQKHGLELASDHHGNFSITLRNVTPRDSGLYCCLVIELKNHHPEQRFYGSMELQVQAGKGSGSTCMASNEQDSDSITAA	13 % WT
yeast-displayed mVISTA H121A (protein) FKVTTPYSLYVCPEGQNATLTCRILGPVSKGHDVTIYKTWYLSSRGEVQMCKEHRPIRNFTLQHLQHHGSHLKANASHDQPQKHGLELASDHHGNFSITLRNVTPRDSGLYCCLVIELKNAHPEQRFYGSMELQVQAGKGSGSTCMASNEQDSDSITAA	1 % WT
